According to the supplement of paper PMC10126150:
± gives the standard deviation of the averaged measurements.

Test system: ATP
Experiment: switch fluorescence ratio, 500 uM ATP over buffer (Cy3 cluster intensity, sum of 5 cycles each) (fold (ratio)); higher = stronger signal-on switching upon ATP binding; sequences stand for … in TCGTCGGCAGCGTCAGATGTGTATAAGAGACAGTTTTTTTTTTTTTTTTTTTTTTTTT…TC
Conditions: aptamer strand: ATP DNA aptamer (quencher-CACCTGGGGGAGTATTGCGGAGGAAGG + anchor), 100 nM annealed; ATP concentration: 500 uM
Method in brief: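 Five buffer/ATP imaging cycles were run on Cy3-labelled switching-strand clusters on a modified Illumina MiSeq flow-cell, with NaOH stripping and re-annealing between cycles. In each cycle, clusters annealed to 100 nM quencher-labelled ATP aptamer were imaged in selection buffer, then after 15 min with 500 uM ATP at 22 °C. Per cluster, the fluorescence ratio is summed target-cycle over summed buffer-cycle Cy3 intensity, averaged per switch-domain sequence. Only clusters within 100-1000 RFU were kept.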
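Further: ATP exposure 15 min at 22 °C before imaging.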

Sequence	switch fluorescence ratio
CTGTTATCGC	1.01 ± 0.042
TTGTTATAGA	0.998 ± 0.024
ATTTAGGGGA	1.04 ± 0.056
CGAAAAGGGA	1.01 ± 0.029
GACCCCGATT	1.05 ± 0.022
CTGTGTTGGT	0.992 ± 0.022
AGGGTATGAA	0.998 ± 0.022
GCAAGAGGGG	1.06 ± 0.039
CAGTGGGGTG	0.993 ± 0.03
AGCCGCTCGT	0.99 ± 0.033
AGCCAAAATA	1.04 ± 0.017
TTTGGGGTCT	1.01 ± 0.1
TGATTGAGCC	0.998 ± 0.047
TTACTCTGGG	1.003 ± 0.0032
GGGTTTTCCA	1.01 ± 0.021
ATATTAAGGC	0.983 ± 0.017
AGGGGCGAGA	0.999 ± 0.013
GGGGGATTGC	1.02 ± 0.066
GACGAATTGG	0.997 ± 0.021
CCGGGTTGCA	1.03 ± 0.04
CAAATGTAGC	1.017 ± 0.0081
TGATTTGACA	1.01 ± 0.013
ACCTTTGGGC	0.996 ± 0.039
ATGGAGTGG	1 ± 0.049
AAAGGATGGT	0.953 ± 0.022

Sequence	switch fluorescence ratio
GTATGTAGCG	0.987 ± 0.027
TCATCTGTGC	1.07 ± 0.029
ACAGGTGCCG	1.13 ± 0.11
ACAAATGGGA	1.02 ± 0.044
AGCGGGGGGA	1.01 ± 0.025
CGGAGTCCGG	1.04 ± 0.059
GTCATGCGTG	0.974 ± 0.044
TTAGGGCTTG	0.992 ± 0.039
CAGTAGGCCA	1.01 ± 0.032
TCTGAGGTTT	1.04 ± 0.029
AAAAGAGATT	0.995 ± 0.013
GCTGTGCGCA	1.02 ± 0.019
AGGGGCGGAG	0.9743 ± 0.0035
TAAACTGGTT	0.999 ± 0.029
TTTATTTTGC	1.01 ± 0.036
GTATAAGTTG	1.02 ± 0.047
TTCTCGGATG	0.995 ± 0.015
TTTATATATA	1.005 ± 0.0095
AGTATGTGAA	0.97601 ± 0.00029
GCGCGCACAC	1.05 ± 0.019
GCGCTGTTGG	0.9996 ± 0.0035
GCGGAGTTGT	1.02 ± 0.035
CCGCGAGGGT	1.57 ± 0.29
ACGTTTTTTG	0.99 ± 0.015
TGGCCTGGGG	0.979 ± 0.025

Sequence	switch fluorescence ratio
TCTTTTTTTC	1.02 ± 0.034
AGTTGAAACA	1.02 ± 0.016
TATTAAAATT	1.008 ± 0.0077
CGGGGTGCTA	1.007 ± 0.0077
GGACCTGCTG	0.969 ± 0.0033
GTCAATTAGG	0.997 ± 0.024
TATTTTGCGG	0.987 ± 0.035
GCACGCCGAG	1.01 ± 0.012
GCGGTCGGTA	1.03 ± 0.038
TTTATGGCGT	1.008 ± 0.0097
TTGGATTGGC	0.978 ± 0.023
TCGAAAGAGA	1.02 ± 0.025
GTGTTAGTAC	0.984 ± 0.056
CACATAAAAG	0.987 ± 0.027
TCATGCACTG	1.05 ± 0.035
TGGAAGGTTT	1.08 ± 0.11
TTATAATTAT	1.09 ± 0.092
GCACGTAGCG	1.06 ± 0.046
GGGGGGAGCT	1.02 ± 0.057
TGGATCTGCG	1.01 ± 0.023
GGGGGAGGTG	1.03 ± 0.048
GAGTATGTTC	0.95 ± 0.017
CGGGGTAGGG	0.983 ± 0.016
TTCTGAGGAT	0.989 ± 0.042
TAGAAGTGGT	0.9963 ± 0.0084

Sequence	switch fluorescence ratio
TTTTTAAAAC	1.003 ± 0.0097
AGTGAGTCTT	0.994 ± 0.032
AAAACTAACG	1.1 ± 0.037
AGTTGTTACA	1.01 ± 0.032
TATCGAAGTT	1.013 ± 0.0018
TATCGTAGTG	0.98 ± 0.038
TTTAGCGGAT	1.02 ± 0.019
GAACTGGGGA	0.984 ± 0.047
CATGTGTTTT	0.9744 ± 0.0041
GGCACATGGG	1.01 ± 0.028
GTTTTTTGTT	0.999 ± 0.043
GGGGTTGGTG	0.989 ± 0.02
GCAAGAGTGG	1 ± 0.034
ACGTGATTCA	1.03 ± 0.074
GCATCCCGAG	1.02 ± 0.025
ATTCTTTGCC	1.003 ± 0.006
CTGGTAATGG	1.04 ± 0.033
CAAAAGGAGT	0.992 ± 0.034
AATCATGGTT	1 ± 0.028
CGTGTGCATG	1.06 ± 0.13
TAGAGCGGGA	1.008 ± 0.0087
GAAAGACGCT	1.15 ± 0.3
AGGGGAATG	1 ± 0.022
GGGGACGGTG	1.03 ± 0.048
GAAAATGCAG	0.999 ± 0.062
